Test [1] concerns the target T1, human serum albumin (human, UniProt P02768). Nature of the test: SPR, pH 7.4.
The target of test [2] is T1, human serum albumin. Briefly: SPR, pH 5.5. Background: Surface plasmon resonance follows binding to a sensor surface in real time, without labels.
For test [3], the target named is T2, cynomolgus serum albumin (cynomolgus).
T2 chain: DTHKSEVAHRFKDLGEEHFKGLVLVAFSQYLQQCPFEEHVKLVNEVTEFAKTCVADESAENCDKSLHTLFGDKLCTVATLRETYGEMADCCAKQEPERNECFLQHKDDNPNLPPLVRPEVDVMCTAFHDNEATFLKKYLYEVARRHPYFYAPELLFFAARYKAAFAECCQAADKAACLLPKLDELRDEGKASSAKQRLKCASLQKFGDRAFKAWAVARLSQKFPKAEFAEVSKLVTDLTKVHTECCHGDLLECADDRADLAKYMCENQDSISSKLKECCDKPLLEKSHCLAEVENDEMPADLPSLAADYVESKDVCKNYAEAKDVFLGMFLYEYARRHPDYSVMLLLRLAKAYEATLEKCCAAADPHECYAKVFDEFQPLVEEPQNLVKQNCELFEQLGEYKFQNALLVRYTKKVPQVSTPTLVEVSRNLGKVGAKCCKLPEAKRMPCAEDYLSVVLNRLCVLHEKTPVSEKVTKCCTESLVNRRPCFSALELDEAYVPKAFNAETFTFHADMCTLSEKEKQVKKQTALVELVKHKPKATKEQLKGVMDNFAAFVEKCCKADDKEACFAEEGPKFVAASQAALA
Briefly: SPR, pH 5.5.

Test [4] addresses T2, cynomolgus serum albumin. Briefly: SPR, pH 7.4.
A further test concerns the target T3, cynomolgus IL-17A (cynomolgus).
T3 chain: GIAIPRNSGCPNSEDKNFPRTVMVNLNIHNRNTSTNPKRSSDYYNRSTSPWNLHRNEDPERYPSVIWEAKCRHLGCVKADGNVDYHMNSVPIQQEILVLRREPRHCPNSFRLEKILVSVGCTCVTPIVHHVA
Briefly: SPR.

The next test addresses T4, human IL-17A (human).
T4 chain: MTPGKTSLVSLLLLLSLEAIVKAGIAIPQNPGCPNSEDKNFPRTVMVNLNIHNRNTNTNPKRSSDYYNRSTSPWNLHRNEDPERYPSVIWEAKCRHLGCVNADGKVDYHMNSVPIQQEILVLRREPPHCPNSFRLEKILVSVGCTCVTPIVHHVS
Nature of the test: SPR.

A word on the Kd: it is the constant that tells how readily two partners part at equilibrium. A high value points to lower affinity.

B1: A5 HSA arm (antibody)
chain 1: EVQLVESGGGLVQPGGSLRLSCAASGIDFSTYGISWVRQAPGKGLEWIAYIYPDYGITDYASWVNGRFTISLDNAQNTVYLQMNSLRAEDTAVYYCARSGSYYSRGWGAHYFNLWGQGTLVTVSSASTKGPSVFPLAPSSKSTSGGTAALGCLVKDYFPEPVTVSWNSGALTSGVHTFPAVLQSSGLYSLSSVVTVPSSSLGTQTYICNVNHKPSNTKVDKKVEPKSCGGGGSGGGGSDIQMTQSPSSLSASVGDRVTITCQASQTINYWLAWYQQKPGKAPKLLIYRASTLASGVPSRFSGSGSGTDFTLTISSLQPEDFATYYCQNYYYSTSRSYGFGGGTKLTVLGGGGGSGGGGSGGGGSGGGGSEVQLVESGGGLVQPGGSLRLSCAASGFSFSSDYWMCWVRQAPGKGLEWIGCIYAGDVDDTDYASWARGRFTISRDNSKNTVYLQMNSLRAEDTAVYYCARVDGFDITYFDLWGQGTLVTVSS
chain 2: DIQMTQSPSSLSASVGDRVTINCQASESISSWLAWYQQKPGKRPKLLIYKASTLASGVPSRFSGSGSGTDYTLTISSLQPEDFATYYCQGYYLDSSVDDNVFGGGTKLTVLGRTRTVAAPSVFIFPPSDEQLKSGTASVVCLLNNFYPREAKVQWKVDNALQSGNSQESVTEQDSKDSTYSLSSTLTLSKADYEKHKVYACEVTHQGLSSPVTKSFNRGECGGGGSGGGGSDIQMTQSPSSLSASVGDRVTITCQSSESVYSNNQLSWYQQKPGQPPKLLIYDASDLASGVPSRFSGSGSGTDFTLTISSLQPEDFATYYCAGGFSSSSDTAFGGGTKLTVLGGGGGSGGGGSGGGGSGGGGSEVQLVESGGGLVQPGGSLRLSCAASGFSLSSNAMGWVRQAPGKGLEYIGIISVGGFTYYASWAKGRFTISRDNSKNTVYLQMNSLRAEDTATYFCARDRHGGDSSGAFYLWGQGTLVTVSS
B1: the Kd in the test with human serum albumin [1] came to 2.69 nM; in the test with human serum albumin [2], 1.66 nM; in the test with cynomolgus serum albumin [3] it was 0.795 nM; in the test with cynomolgus serum albumin [4] it was 2.47 nM.

B2: A5 IL-17A arm (antibody)
chain 1: EVQLVESGGGLVQPGGSLRLSCAASGIDFSTYGISWVRQAPGKGLEWIAYIYPDYGITDYASWVNGRFTISLDNAQNTVYLQMNSLRAEDTAVYYCARSGSYYSRGWGAHYFNLWGQGTLVTVSSASTKGPSVFPLAPSSKSTSGGTAALGCLVKDYFPEPVTVSWNSGALTSGVHTFPAVLQSSGLYSLSSVVTVPSSSLGTQTYICNVNHKPSNTKVDKKVEPKSCGGGGSGGGGSDIQMTQSPSSLSASVGDRVTITCQASQTINYWLAWYQQKPGKAPKLLIYRASTLASGVPSRFSGSGSGTDFTLTISSLQPEDFATYYCQNYYYSTSRSYGFGGGTKLTVLGGGGGSGGGGSGGGGSGGGGSEVQLVESGGGLVQPGGSLRLSCAASGFSFSSDYWMCWVRQAPGKGLEWIGCIYAGDVDDTDYASWARGRFTISRDNSKNTVYLQMNSLRAEDTAVYYCARVDGFDITYFDLWGQGTLVTVSS
chain 2: DIQMTQSPSSLSASVGDRVTINCQASESISSWLAWYQQKPGKRPKLLIYKASTLASGVPSRFSGSGSGTDYTLTISSLQPEDFATYYCQGYYLDSSVDDNVFGGGTKLTVLGRTRTVAAPSVFIFPPSDEQLKSGTASVVCLLNNFYPREAKVQWKVDNALQSGNSQESVTEQDSKDSTYSLSSTLTLSKADYEKHKVYACEVTHQGLSSPVTKSFNRGECGGGGSGGGGSDIQMTQSPSSLSASVGDRVTITCQSSESVYSNNQLSWYQQKPGQPPKLLIYDASDLASGVPSRFSGSGSGTDFTLTISSLQPEDFATYYCAGGFSSSSDTAFGGGTKLTVLGGGGGSGGGGSGGGGSGGGGSEVQLVESGGGLVQPGGSLRLSCAASGFSLSSNAMGWVRQAPGKGLEYIGIISVGGFTYYASWAKGRFTISRDNSKNTVYLQMNSLRAEDTATYFCARDRHGGDSSGAFYLWGQGTLVTVSS
With B2, the values for the Kd with cynomolgus IL-17A and in the test with human IL-17A were 0.523 nM and 0.575 nM, respectively.
